In patent publication US20090053203A1 (ONTHERIX, published 2009):
Ends that are not written are not given here.

Columns and labels:
Test in all cases: chemical cross-linking of the biotinylated peptide on chilled cells, capture on Ni-NTA plates, detection with an antibody to the marker
[1] = molecular target: T1, transferrin receptor 1 (UniProt P02786 1-760, limits assumed)
T1 construct: whole, on cells
Procedure: (§1) HEK293 kidney cell line and 54 tumor cell lines obtained from the National Cancer Institute and passaged in RPMI1640 cell culture medium supplemented with 10% fetal bovine serum and 10 uM FeCl₂. Uptake of streptavidin-horseradish peroxidase (SA-HRP) conjugate and of various SA-HRP::MBD peptide complexes was determined as described (Singh et al. J Biol Chem. 279 (1):477-87 [2004]) using biotinylated MBD9 ([…]) (SEQ ID NO: 10) and MBD21 ([…]) (SEQ ID NO: 4) peptides and SA-HRP. Nuclear and cytoplasmic localization of these proteins was also determined in each case. […] In order to establish the underlying molecular mechanism for this variability, we cross-linked MBD21 peptide to the following cell surface markers at 4 degrees Celsius as previously described (Singh et al. J Biol Chem. 279 (1):477-87 [2004]): transferrin receptor 1, caveolin 1, PCNA, integrins alpha v, 2, 5 and 6, integrins beta 1, 3 and 5. […] Based on the strength of these correlations, it was possible to derive crude predictive formulae for MBD-mediated uptake based on the rate of cross-linking to surface markers. Such predictive formulas could form the basis for a diagnostic procedure to select appropriate targets for MBD-based therapies.

[2] = molecular target: T2, PCNA (UniProt P12004 1-261, limits assumed)
T2 construct: whole, on cells
Procedure: as §1

[3] = molecular target: T3, caveolin 1 (UniProt Q03135 2-178, limits assumed)
T3 construct: whole, on cells
T3 sequence (looked up): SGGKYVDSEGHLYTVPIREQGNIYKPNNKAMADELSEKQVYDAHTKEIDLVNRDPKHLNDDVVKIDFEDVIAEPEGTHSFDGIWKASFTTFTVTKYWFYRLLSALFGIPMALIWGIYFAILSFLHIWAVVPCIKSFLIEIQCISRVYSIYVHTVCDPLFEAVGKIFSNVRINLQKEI
Procedure: as §1

T2 sequence (P12004 whole entry): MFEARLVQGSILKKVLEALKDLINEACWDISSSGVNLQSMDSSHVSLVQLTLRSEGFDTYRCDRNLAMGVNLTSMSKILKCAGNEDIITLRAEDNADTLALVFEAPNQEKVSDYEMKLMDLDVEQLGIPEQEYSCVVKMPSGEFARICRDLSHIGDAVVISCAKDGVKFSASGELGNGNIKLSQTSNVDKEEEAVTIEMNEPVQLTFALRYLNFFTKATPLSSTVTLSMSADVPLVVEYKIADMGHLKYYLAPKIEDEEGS
T1 sequence (P02786 whole entry): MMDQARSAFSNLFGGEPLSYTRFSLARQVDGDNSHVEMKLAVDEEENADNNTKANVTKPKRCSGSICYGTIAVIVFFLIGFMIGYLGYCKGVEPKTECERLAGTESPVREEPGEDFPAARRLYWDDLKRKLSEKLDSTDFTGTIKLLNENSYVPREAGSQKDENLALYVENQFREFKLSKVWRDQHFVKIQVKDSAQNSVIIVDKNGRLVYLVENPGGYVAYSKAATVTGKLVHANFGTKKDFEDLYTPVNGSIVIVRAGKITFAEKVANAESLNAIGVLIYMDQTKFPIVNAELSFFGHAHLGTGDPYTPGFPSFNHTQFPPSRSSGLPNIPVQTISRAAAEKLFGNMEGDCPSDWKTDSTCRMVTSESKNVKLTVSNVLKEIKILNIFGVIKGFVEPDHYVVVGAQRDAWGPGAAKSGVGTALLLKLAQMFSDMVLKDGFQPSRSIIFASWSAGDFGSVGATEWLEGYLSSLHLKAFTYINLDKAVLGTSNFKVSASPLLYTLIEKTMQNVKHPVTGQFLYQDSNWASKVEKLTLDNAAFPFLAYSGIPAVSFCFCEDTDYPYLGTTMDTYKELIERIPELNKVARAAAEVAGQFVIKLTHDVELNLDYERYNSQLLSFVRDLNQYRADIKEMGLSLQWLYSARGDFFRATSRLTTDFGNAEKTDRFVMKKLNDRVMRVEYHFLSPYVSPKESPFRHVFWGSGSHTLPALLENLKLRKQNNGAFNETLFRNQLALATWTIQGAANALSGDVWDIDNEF

binding result [1]: binds | binding result [2]: binds | binding result [3]: binds
B1: MBD21 peptide (biotinylated) (peptide)
peptide: KKGFYKKKQCRPSKGRKRGFCWAVDKYG
modifications: cysteine pairing not given here; also: biotinylated, position not given here
notes: also called biotinylated MBD21 peptide
